# “Also recorded” adds a separate entry of the source.
# B1: rmIL11: Recombinant mouse IL-11 (UniProtKB: P47873) (protein)
# chain: PGPPAGSPRVSSDPRADLDSAVLLTRSLLADTRQLAAQMRDKFPADGDHSLDSLPTLAMSAGTLGSLQLPGVLTRLRVDLMSYLRHVQWLRRAGGPSLKTLEPELGALQARLERLLRRLQLLMSRLALPQAAPDQPVIPLGPPASAWGSIRAAHAILGGLHLTLDWAVRGLLLLKTRL
# B2: hyperIL11: IL11RA:IL11 fusion protein mimicking the trans-signalling complex, SEQ ID NO:21 (protein)
# chain: MSSSCSGLSRVLVAVATALVSASSPCPQAWGPPGVQYGQPGRSVKLCCPGVTAGDPVSWFRDGEPKLLQGPDSGLGHELVLAQADSTDEGTYICQTLDGALGGTVTLQLGYPPARPVVSCQAADYENFSCTWSPSQISGLPTRYLTSYRKKTVLGADSQRRSPSTGPWPCPQDPLGAARCVVHGAEFWSQYRINVTEVNPLGASTRLLDVSLQSILRPDPPQGLRVESVPGYPRRLRASWTYPASWPCQPHFLLKFRLQYRPAQHPAWSTVEPAGLEEVITDAVAGLPHAVRVSARDFLDAGTWSTWSPEAWGTPSTGPAGQSGGGGGSGGGSGGGSVPGPPPGPPRVSPDPRAELDSTVLLTRSLLADTRQLAAQLRDKFPADGDHNLDSLPTLAMSAGALGALQLPGVLTRLRADLLSYLRHVQWLRRAGGSSLKTLEPELGTLQARLDRLLRRLQLLMSRLALPQPPPDPPAPPLAPPSSAWGGIRAAHAILGGLHLTLDWAVRGLLLLKTRL
# modifications: Hyper IL-11 (IL-11RAIL-11 fusion)
# B3: sIL11RA: soluble IL11RA, human IL11RA (R&D systems), to potentiate putative trans-signaling (protein, UniProt Q14626 24-370, looked up)
# extracellular domain: SPCPQAWGPPGVQYGQPGRSVKLCCPGVTAGDPVSWFRDGEPKLLQGPDSGLGHELVLAQADSTDEGTYICQTLDGALGGTVTLQLGYPPARPVVSCQAADYENFSCTWSPSQISGLPTRYLTSYRKKTVLGADSQRRSPSTGPWPCPQDPLGAARCVVHGAEFWSQYRINVTEVNPLGASTRLLDVSLQSILRPDPPQGLRVESVPGYPRRLRASWTYPASWPCQPHFLLKFRLQYRPAQHPAWSTVEPAGLEEVITDAVAGLPHAVRVSARDFLDAGTWSTWSPEAWGTPSTGTIPKEIPAWGQLHTQPEVEPQVDSPAPPRPSLQPHPRLLDHRDSVEQVAVLA
# modifications: extracellular domain
# Experiments:
# [1] = test system: HSCs; experiment: IL-11 expression and secretion by HSCs (RNA-seq, ELISA); assay type: cell-based, human; settings: for IL-11 secretion from HSCs: ELISA
# Text: TGFβ1 stimulation of human hepatic stellate cells and antibody treatment in HFMCD: Sequenced libraries were demultiplexed using bcl2fastq v2.19.0.316 with the-no-lane-splitting option. Adapter sequences were then trimmed using trimmomatic^6 v0.36 in paired end mode with the options MAXINFO:35:0.5 MINLEN:35. Trimmed reads were aligned to the Homo sapiens GRCh38 using STAR′ v. 2.2.1 with the options—outFilterType BySJout-outFilterMultimapNmax 20-alignSJoverhangMin 8-alignSJDBoverhangMin 1-outFilterMismatchNmax 999-alignIntronMin 20-alignIntronMax 1000000-alignMatesGapMax 1000000 in paired end, single pass mode. Only unique alignments were retained for counting. Counts were calculated at the gene level using the FeatureCounts module from subread^8v. 1.5.1, with the options -O-s 2-J-T 8-p-R-G. The Ensembl release 86 hg38 GTF was used as annotation to prepare STAR indexes and for FeatureCounts.
# The levels of IL-11 and MMP-2 in equal volumes of cell culture media were quantified using Human IL-11 Quantikine ELISA kit (D1100, R&D Systems) and Total MMP-2 Quantikine ELISA kit (MMP200, R&D Systems), respectively. Total secreted collagen in the cell culture supernatant was quantified using Sirius red collagen detection kit (9062, Chondrex). Total hydroxyproline content in the livers was measured using Quickzyme Total Collagen assay kit (Quickzyme Biosciences). Mouse serum levels of alanine aminotransferease (ALT), cholesterol, and triglycerides were measured using Alanine Transaminase Activity Assay Kit (ab105134, abcam), Cholesterol Assay Kit (ab65390, abcam), and Triglyceride Assay Kit (ab65336, abcam), respectively. Liver Triglycerides (TG) measurements were performed using triglyceride colorimetric assay kit (Ser. No. 10/010,303, Cayman). All ELISA and colorimetric assays were performed according to the manufacturer's protocol.
# [2] = test system: primary human hepatocytes; experiment: Stimulation of primary human hepatocytes with IL11, hyperIL11, hyperIL6; assay type: cell-based; settings: for ERK and JNK (non-canonical signaling) activation: 2.5 ng/ml to 20 ng/ml
# Procedure: Human hepatocytes (5200, ScienCell) were grown and maintained in hepatocyte media (5201, ScienCell) supplemented with 2% fetal bovine serum (FBS) and 1% Penicillin-streptomycin.
# Primary human hepatocytes (5200, ScienCell) were maintained in hepatocyte medium ([…], ScienCell) supplemented with 2% fetal bovine serum, 1% Penicillin-streptomycin at 37° C. and 5% CO2. Hepatocytes (P2-P3) were serum-starved overnight unless otherwise specified in the methods prior to 24 hours stimulation with different doses of various recombinant proteins as described.
# For surface IL11RA, IL6R, and gp130 analysis, primary human hepatocytes and THP-1 cells were stained with IL11RA, IL6R, or gp130 antibody and the corresponding Alexa Fluor 488 secondary antibody. Cell death analysis was performed by staining primary human hepatocytes with Dead Cell Apoptosis Kit with Annexin V FITC and PI (V13242, Thermo Fisher). PI+ve cells were then quantified with the flow cytometer (Fortessa, BD Biosciences) and analyzed with FlowJo version X software (TreeStar).
# Alanine Aminotransferase (ALT) activity in the cell culture supernatant and mouse serum was measured using ALT Activity Assay Kit (ab105134, Abcam). Liver Glutathione (GSH) levels were measured using Glutathione Colorimetric Detection Kit (EIAGSHC, Thermo Fisher). Total hydroxyproline content in mouse livers was measured using Quickzyme Total Collagen assay kit (QZBtotco15, Quickzyme Biosciences). The levels of serum and liver triglycerides were measured using Triglyceride Assay Kit (ab65336, Abcam). Mouse serum levels of Aspartate Aminotransferase (AST) and cholesterol were measured using AST Assay Kit (ab105135, Abcam) and Cholesterol Assay Kit (ab65390; Abcam), respectively. All colorimetric assays were performed according to the manufacturer's protocol.
# (§1) Western blots were carried out on total protein extracts from hepatocytes and liver tissues. Hepatocyte and liver tissue lysates were homogenized in RIPA Lysis and Extraction Buffer (89901, Thermo Scientific) containing protease and phosphatase inhibitors (Roche). Protein lysates were separated by SDS-PAGE and transferred to PVDF membranes. Protein bands were visualized using the ECL detection system (Pierce) with the appropriate secondary antibodies: anti-rabbit HRP or anti-mouse HRP.
# [3] = test system: primary human hepatocytes; experiment: Palmitate loading (lipotoxicity) of primary human hepatocytes; assay type: cell-based; settings: palmitate:BSA 6:1
# Procedure: Palmitate:BSA conjugated solution in the ratio of 6:1 was prepared as described earlier (Alsabeeh et al., 2018). Palmitate (0.5 mM) conjugated in fatty acids free BSA was used to treated cells as described in figure legends; 0.5% BSA solution was used as control. […]
# Primary human hepatocytes were seeded on 8-well chamber slides (1×10^4 cells/well). For this experiment, cells were not serum-starved prior to palmitate treatment. 24 hours following palmitate stimulation, cells were washed, incubated with 25 μM of DCFDA solution (ab113851, Abcam) for 45 minutes at 37° C. in the dark, and rinsed with dilution buffer according to the manufacturer's protocol. Live cells with positive DCF staining were imaged with filter set appropriate for fluorescein (FITC) using a fluorescence microscope (Leica). […]
# as §1
# [4] = test system: wild-type C57BL/6J and Col1a1-GFP reporter mice; experiment: Daily subcutaneous injection of recombinant mouse IL-11; assay type: in vivo
# Procedure: Recombinant mouse IL-11 (rmIL11) was reconstituted to a concentration of 50 μg ml^−1 in saline. Ten-week-old male wild-type C57BL/6J mice received daily subcutaneous injection of either 100 μg kg^−1 of rmIL11 in saline (n=19) or an identical volume of saline (n=15) for 21 days.
# Ten week old male Col1a1-GFP reporter mice 19 and wild-type C57BL/6J mice received daily subcutaneous injection of either 100 μg/kg of recombinant mouse Il-11 (rmIl-11) or identical volume of saline for 21 days.
molecule,measurement,setting,value
"TGFβ1: human TGFβ1 recombinant protein, pro-fibrotic stimulus [reference compound]",IL-11 upregulation in HSCs (RNA-seq),"[1]; TGFβ1 5 ng/ml, 24 h",14.9 fold
same,IL-11 secretion from hepatocytes,"[2]; TGFβ1 5 ng/ml, 24 h",robustly secreted IL-11
"hyperIL6: IL6R:IL6 fusion protein, synthetic IL6 trans-signaling construct (R&D systems) [reference compound]",ERK and JNK (non-canonical signaling) activation,[2]; 24 h,did not activate
same,"ALT in the media, fold change (FC)",[2]; 20 ng/ml,0.9
same,STAT3 activation,"[2]; dose range, 24 h",dose-dependently induced STAT3 activation
PDGF,IL-11 secretion from HSCs,[1],induce IL-11 secretion
"bFGF: human bFGF recombinant protein, NASH stimulus",IL-11 secretion from HSCs,[1],induce IL-11 secretion
"angiotensin II: human angiotensin (Sigma-Aldrich), NASH stimulus (DRVYIHPF; Angiotensin-2; UniProt P01019 25-32, looked up)",IL-11 secretion from HSCs,[1],induce IL-11 secretion
"CCCCCCCCCCCCCCCC(=O)O [palmitate, Palmitate, reference compound]","IL11 secretion, FC vs control",[3],28
"CCL2: human CCL2 recombinant protein, NASH stimulus",IL-11 secretion from HSCs,[1],induce IL-11 secretion
B1,expression of key pro-fibrotic and pro-inflammatory genes,"[4]; 100 μg/kg daily s.c., 21 days",increased
same,hepatic collagen content,"[4]; 100 μg/kg daily s.c., 21 days",increased
same,serum alanine aminotransferase (ALT),"[4]; 100 μg/kg daily s.c., 21 days",increased
same,weight gain,"[4]; 100 μg/kg daily s.c., 21 days, vs saline",slowed normal mouse weight gain progression; also recorded: gained less weight
same,Col1a1+ve myofibroblasts in the liver,[4]; Col1a1-GFP reporter mice,accumulated GFP-expressing Col1a1^+ve myofibroblasts in the liver
B2,IL-11 secretion from HSCs,[1],secreted IL-11
same,ERK and JNK (non-canonical signaling) activation,[2]; 24 h,activated ERK and JNK in a dose-dependent manner
same,alanine transaminase (ALT) in the media,"[2]; dose range, 24 h",dose-dependent increase
B3,IL11-induced hepatocyte death and signaling,"[2]; IL11 20 ng/ml, sgp130 or sIL11RA 1 μg/ml",unaffected
same,ALT release from IL11-stimulated hepatocytes,[2]; increasing doses of sgp130 or sIL11RA,no effect
same,IL11 dose-dependent hepatocyte cell death on addition of decoy,[2]; sgp130 or sIL11RA 1 μg/ml,unaffected

# From patent US11813311B2, “Treatment and prevention of metabolic diseases” (Singapore Health Services PTE LTD., priority 2019, dated 2023)
